Reference: a protein production outcome set (Wang et al. 2014)

Assay: label from the status in PepcDB records

Row | Sequence | protein production
1 | MKPRNIAIACGVAGVAVSLAAATGIVYHKQIKSAASLKRLTGYADGYDLYAIDIAYDYDLNRIIAAGVRDDQAYIDAVVAQVLPGVPVHVQAPQFACSAFVAVDAEGRVRTGRNYDFKDDTSALLVRNHPRGGYASIGFAALNNLGDNTPLDSVAGRAAALMGPFGQLDGVNECGVSIAVLTLDSKPCDQDAQRPVINTSLAIRLVLDRAATTQEAVDLLSAYDMHAMAGRDYHFFINDAAGDARVVEWDPRDPDRAFKATPVRQVTNFYACYGDEVLPNQKNGELGHGKERAIAIADVLDAHVGAQDEAVAWKALRAAAQEPNPKDITSNTQWSVVFDNTEPAAAITLRRHWGDVDAFAL | failed
2 | MKPSFKKLLLLFSIITILSIACTPHAKASGRSWKSWFIEQYFWLKRDKSYYKVQDESSFQKYLNASREQSDKGYYLDPNSVNGGLVQERLFDMQVYSWNDNGKANQKTIFYLAGGSYLNNPTPYHISMLKTLSTSLDAKIILPIYPKTPRYTYDYAIPRLVNLYRHFHEKNANLTLMGDSAGGGLALGLAHALSHQSGQEAIPQPKNIILLSPWLDVTMKHPEIPKYEDTDPILSAWGLARVGEIWANGSNNTNHTYVSPKNAPATKLAPITLFTGTREIFFPDIRDYAAQLQAANHPVNYIAQEGMNHVYPIYPIEEAKTAQYQMIDIINKTP | failed
3 | MKPSQWTLRWVTLCGCGMLAASAAAVELPGTVQPSQLDERFKPRSEPQAKPEAPLVVPKQVAPQGSEQIRFKLREIRIEGNTRYDKAVLESYYQHMLGEQVSLAELVDLANRLTAKYRQDGFLLTQVVVPEQSIEGGKVRLQVIEGYLEHVQIKGTVDGPRVRVEELLAPLTEKRPLDADTLERGLLLVGDLPGVNVQSVLSPGQALGSSNLDVALQQQRYEGFVSLDNRGSHYTDPTTLAFGATEFSRLGFYEQIDVLGAISPFSDATRYIQLRGTLPLGGMFAGDTLQIMGSYSKVNPDIPDSVFPFDSVSKSTEGSISYNHPFIRSRSQNLSGGLALQWKDTETRLRDFASDASNPGRDHVRVFQQRLTYDWVDRWMGINLAEVRNNIGLDMWGATKKDDERRSREVADGRFVYLNGNIGRLQGLGGPWSVYGELQWQYSFDPLLPSERFGVGGSGIGRGFAPGNITGDRGFALKLEPRYGQAVGYSWLRSYQAYAFYDWGKTYNLDVDDDEQQKLGSIGAGVRFNLTDQLSFNPEIARQVIGEPADQRDGKRETRVLFNVVARF | failed
4 | MKQILFLLAAVLLLGGCAEEKKTDVRWATFNIRYDNPQDSLNNWQYRKDRVCQFIKDHELDIVGMQEVLHNQFQDLRAGLPEYDGIGVGRDDGKTAGEYAPLFYRKDKYEVLDSNTFWLAENPDSVGMMGWDAVCVRIATWAKFKDKATGKIFMAVNTHFDHVGEEARRQSALLIIRKIKEIVGERPAVVTGDFNVTDASDAYETITTNEFVMKDAYKTAARVTGVDYTFHDFARIPAEDCEKIDFIFVTPQVLVKSCEIPAEVPEALLSDHNPQLADLEF | failed
5 | MKQIVAGIVAHVDAGKTTLSEALLYRTGEIRKLGRVDHGDAFLDTNSLEKARGITIFAHQALVEHGDLRLTLLDTPGHVDFAAETERVLRVLDYAILVVSGTDGVQGHTETLWRLLARYGVPTFIFVNKCDAAGFAREAILAQLRKRLSDAIYPLPAMEQFTEGSAVPLDAFAEDIATLDEEAMNDYLEHGVLSVGRLRSMIAVRELFPVYFGSALKLEGVEEFLDGLETFTREREWPAAFAARVFKIAHDGQHNRMTWLRVTGGALKAKEIVSSSSCAAASTPSPAQEDDGMAWSEKVDQVRIYNGAKFETVTEVPAGSVCAVTGLTRTFPGEGLGAEPDAESPSLQPVLTYTVLPAGAESDTAGTSGAAKRGGTGHDSVNRDDAEHDAAKSETGRNEENDTAGQDAETDNSSPALPQFDDLTLHKVITALRELEDEDPLLHVVWVERLAEIHVQLMGTVQLEIIQQTLHDRFGLDVSFGPGSILYRETITAPVEGAGHFEPLRHYAEAHILLEPGEPGSGVTVGSALSENDLDRNWQRLILTHLTEREHLGVLVGAPLTDIKMTLVAGRAHLKHTEGGDFRQATYRAIRQGLMEARAGVSGRPETPVESRPDTTGEGNCRLLEPWYRFRLEVPADMIGRAMSDIQRMAGTFESPVTDGEYAVIEGEAPVSEMRDYAMDVNQYTHGHGHFSATFGGYKPCHDAKQVIAAAAYDPEADLDNTPDSVFCAHGAGYPVKWYKVPEFAHVDYVM | failed
6 | MKQLFQKLYDHIEITLLVLLSVSFVTGMYMMMNRPIGPTMMDYVPQVIIGTIIIVDIVFLISGRKKENSK | failed
7 | MKQLNDGDFIKIEFEMRVGEEKKLVSTSKADLAKENDIFDENARYGDIVVIVGQEGIFKEVNEAFRKAEPGQEVEVEVPPEDAFGQRLPSNIKIHTMREFQRLEHHHHHH | not failed
8 | MKQLSGLLGELRQKLCAGFPEQAGIQQLIFPAPGLVGRQLLEWLTAQTHFPQFYWRHRDNHEEAAVCGQTRSFADMKDADDFIQQNPDANGLRIWGLNAFEPVMVFGQLTDNGLVSGKNAQASFLFLPRLEILRRGKKTSLTLNLSSETSLQKDALQAITFIDQLMAARALPVLNARIQHSSHTPGYPQWRNLIQQALNDIEQQKLDKVVLARTTTLTLNKPLSCAAFMAASRQVNHRCYHFMLRFDDRQAFLGSSPERLYLRQQLHLETEALAGTVSNLDSDPQAAVLADWLMHDEKNQRENLLVVDDICQRLQGGVTAVDVMPPEIIRLRKVQHLRRRICAQLSRASDTDCLQRLQPTAAVAGLPREAARQFIAKHELFSRGWYAGSAGYLSLKRTEFSVALRSARVDGQQIHLYAGAGIVAGSDAEQEWQEIDNKSAGLQSLLEHEAQPVKA | not failed
9 | MKQMKFKYAYQLFFTQFIILLIACIMIGVLVSHSLKDYFYQSQVDDLTSYGQTISRDIRYSPQDATMQVLNTYQRILDVKKIHYTIKNANDETIYPTQMNQPLPKDFSISADDKKKLESGETVSKKIDNRFNKEMTIVYVPIMNGDKFVGSIVLNSPISGTEQVIGTINRYMFYTILLSITVALILSAILSKLQVNRINKLRAATKDVIQGNYNARLKENNFDEIGALAIDFNKMTQTLETSQEEIERQEKRRRQFIADVSHEMRTPLTTISGLTEGLVNDIIPKSETDRCIALIDTEARRLTKLVNENLDYEKIRSNKIKLQKTRFNGKEFLELIKEQLDYVASEKGNTITVAIDKDMAIYADYDRLTQVFINIVKNSVQFTENGQITLTGTQDYKESVLTITDTGIGMNTEELEQIWERFYKADMSRTNTAFGESGIGLSIVKQLIEYHDGSITVTSEPNKGTSFTIRLPFFQDNEQ | failed
10 | MKQPTAVIFDWYNTLIDTSINIDRTTFYQVLDQMGYKNIDLDSIPNSTIPKYLITLLGKRWKEATILYENSLEKSQKSDNFMLNDGAIELLDTLKENNITMAIVSNKNGERLRSEIHHKNLTHYFDSIIGSGDTGTIKPSPEPVLAALTNINIEPSKEVFFIGDSISDIQSAIEAGCLPIKYGSTNIIKDILSFKNFYDIRNFICQLINI | not failed
11 | MKQRRKGQENSDTEEMISRIYPYITRVFDIYEIQKSGEILYFFGTPKTDAENVMGELWAPLEQRGLGGTLKYELGEHVLIVTPVKKAKEKHWVNLALFIATVFTTMICGAWLFGVDLWSEPLQIFQGLPFTLAILAVLGSHEMAHYAMARHHGMKTSLPYFIPFPTFIGTMGAVIRYRGPIPDRKALFDVGIAGPLVGLLVSIVVTIIGLNLDVPAVKPLPDSLMFELGLPPLFVMLQKLVGVTGSNLHPVAFAGWVGMFVTLLNLLPAGQLDGGHVLRAMLGKKADWVSSMMPRILLMIGIYVVYGLKGDGFIWIFWALFLWAFAAAGHPSPLHDKMKLDRKRILIGILTFILGLLCFTLIPFKPIT | failed
12 | MKQSKIRSVLQSIALLVLAGTAAAEPKLEKITHGRFEQIPVLRPDGEPQRVVIWFSGAGHVDQRTRQAELLRQDGAMVALVDTTHLYKVLAADSNHCTFSVGDVENLSRYLQAYYRDKTYRLPLLVGDGDGSGLVYAVAAQAPENILAGVVTDGLCP | failed
13 | MKQSLQIWLEAARPKTLPLALVSILTGSVLAYSAGHFSLTIAIMAFATATLLQILSNLANDYGDAVKGTDNENRLGPQRAMQTGAVSAKQMKQAIIFNIVLTAISGLVLVFYALSSPESIITFIGLGILAIIAAIAYTMGSKPYGYVGLGDISVFLFFGLLGVSGTYFLHTGHVDTTLFLPALGCGLLAVAVLNINNMRDIENDRECGKRTVAVRLGQHKAKQYHFILLGGAILAFAAYLLIQDKPLWISLPFLLSVYVVIHHGKAVWDTEKPAQIAPMLPVIVKCSLVTNVLFATIVVAQTLVS | failed
14 | MKQTELLKGILEGLVLAIIQRKETYGYEITKILNDQGFTEIVEGTVYTILLRLEKNQWVIAEKKPSEKGPMRKFYRLTSSGEAELADFWQRWTLLSKQVNKMKKNGGIEHVKF | not failed
15 | MKRADIKRRPLADTTLTGLEPEAKEYRELDGNGLYFRVKPDGGKSWQLRYKRPAGNWAWMGLGGYPEVSGALAREKAAELRKTISSGIDPLEQKRSAKAAIDAAKTRTFRAAADAWLKAKEEKGLAPSTLNKIRTYLDKDILPALGDKPLDEITRTDCAELQASIEARDAHNVAEKCRTWINQIFGRAIGLGLTENDPGSRLRDIAAQAPKTQQHPHLLEPELGEFLTALKNTPSRLTARTAAWLCIWTASRPGMVRLAEWKEFDLDKATWTTPAAKMKMRRDFVCPLPHQAIAALKELHCLTGRSRWLFPGVGAKNPTISENTINKVFATIGYKGRLVGHGTRHTASTLLREHGWPKEHVEAQLAHKEEGISGVYNKAQYLEQRITMMQWYADHLDALEQGKVIQGQFGKAL | failed
16 | MKRALEFLKECGVFYLATNEGDQPRVRPFGAVFEYEGKLYIVSNNTKKCFKQMIQNPKVEISGMNKKGQWIRLTGEVANDDRREVKELALEAVPSLKNMYSVDDGIFAVLYFTKGEGTICSFKGENETFSL | not failed
17 | MKRAYKIEINPTDDQKSKIHQTIGVSRFIYNFYIAHNKEIYEKEGKFVSGMDFSKWLNNEYIPNNQDKKWIKEVSSKATKQAIMNGDKAFKDFFKKAKGFPRFKKKKNQDVKAYFPKNNKTDWTLERHRVKIPTLGWVRLKEFGYIPKNSVVKSGTVSQKADRYYVSILVEETYIKISNPNNEGLGIDLGIKEFAICSNGNKFKNINKTSTVKKIEKKLKREQRKLSRKYESLKIRNKNIKEGRATRQNIQKQVVKVQRLHQRLANIRTDYINKTVFSIVKQKPSYITIEDLAVSNMMKNKHLSKAISSQKFFEFKTKLMSKCKQNNIELRIVDRFYPSSKTCSNCGKIKKDLKLSDRIYKCDCGFTIDRDLNASINLKNAKEYKIA | failed
18 | MKRGEELPPLEIEVTRTLIVAGAIASRDYQDVHHDAESARRRGSPDIFMNILTTNGLVGRYITDHFGPGAVLRKVAIRLGAPNYPGDTMVLTGTVVEVEGDTATVKVIGANGIGTHVRGTVTVTVPPGSASLEHHHHHH | failed
19 | MKRIFSLLEKTWLGAPIQFAWQKTSGNYLAVTGADYIVKIFDRHGQKRSEINLPGNCVAMDWDKDGDVLAVIAEKSSCIYLWDANTNKTSQLDNGMRDQMSFLLWSKVGSFLAVGTVKGNLVIYNHQTSRKIPVLGKHTKRITCGCWNAENLPALGGEDKMITVSNQEGDTIRQTQVRSEPSNMQFFLMKMDDRTSAAESMISVVLGKKTLFFLNLNEPDNPADLEFQQDFGNIVCYNWYGDGRIMIGFSCGHFVVISTHTGELGQEIFQARNHKDNLTSIAVSQTLNKVATCGDNCIKIQDLVDLKDMYVILNLDEENKGLGTLSWTDDGQLLALSTQRGSLHVFLTKLPILGDACSTRIAYLTSLLEVTVANPVEGELPITVSVDVEPNFVAVGLYHLAVGMNNRAWFYVLGENAVKKLKDMEYLGTVASICLHSDYAAALFEGKVQLHLKAKSWMLTKNVRLGFSQQWMISAVSYAMP | failed
20 | MKRIHVRYKQIRRFFLLLGLVIIAAYVAFVLYRYWDHWLLLSNPQKAIENFEQQFRSENLFNFLVLTVLTSLTAAIPFLSSSVLSVFNGVVFGPWIGVLMNTIGNILGHFFLIQMMSRVDLTERDSKFNHHLERLSQIKNPYLALTLGYMIPFIPSFLVDYMVLDTKIPWHRWLPCLTLGVIPTSILYAFGGHAIIAGNMKQLILIVLLALILLAIYKRFEKKKG | failed
